In PMC9352680, “A comprehensive thermodynamic model for RNA binding by the Saccharomyces cerevisiae Pumilio protein PUF4”:

Target: T1, PUF4 RNA-binding domain (Saccharomyces cerevisiae, UniProt P25339 537-888)
T1 sequence: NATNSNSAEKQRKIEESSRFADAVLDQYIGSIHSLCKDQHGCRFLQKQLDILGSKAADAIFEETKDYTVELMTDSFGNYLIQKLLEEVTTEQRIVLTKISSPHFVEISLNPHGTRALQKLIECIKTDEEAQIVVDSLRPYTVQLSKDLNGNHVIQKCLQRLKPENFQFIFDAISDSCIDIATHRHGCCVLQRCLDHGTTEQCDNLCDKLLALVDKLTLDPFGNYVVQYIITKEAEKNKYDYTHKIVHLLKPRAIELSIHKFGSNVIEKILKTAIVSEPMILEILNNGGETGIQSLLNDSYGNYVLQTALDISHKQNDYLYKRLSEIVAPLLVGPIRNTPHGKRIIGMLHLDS
Test: Mg; RNA-MaP; 20 mM Na-HEPES pH 7.4, 30 mM KOAc, 0.75 mM MgCl2, 0.1% Tween-20, 5% glycerol, 0.1 mg/mL BSA, 2 mM DTT; 25 C; 0.0125-409.6 nM protein
Details: tags: N-His6-TEV cleaved; C-SNAP kept, Cy3B-labelled; label: tethered on chip by stalled RNA polymerase

UCUCUUCGUAUAUUAUUAGCUCUCUU (ssRNA) [Id_ii_S1_P5E.3_K5.2_C5.2_[T-1G]_H5.2_A5.1_F5.1_T5.2_[T11G]_[A12C]]
Kd: 25.6 nM

UCUCUUCGUAUAUUAUUAGUUCUCUU (ssRNA) [Id_ii_S1_P5E.3_K5.2_C5.2_[T-1G]_H5.2_A5.1_F5.1_T5.2_[T11G]_[A12T]]
Kd: 25.4 nM

UCUCUUCGUAUAUUAUUAUUUCUCUU (ssRNA) [Id_ii_S1_P5E.3_K5.2_C5.2_[T-1G]_H5.2_A5.1_F5.1_T5.2_[A12T]]
Kd: 26.6 nM

UCUCUUAUUAUAUUAUUACCUCUCUU (ssRNA) [Id_ii_S1_P5E.3_K5.2_C5.2_[C-2A]_H5.2_A5.1_F5.1_T5.2_[T11C]_[A12C]]
Kd: 203 nM

UCUCUUCCUAUAUUAUUAAUUCUCUU (ssRNA) [Id_ii_S1_P5E.3_K5.2_C5.2_[T-1C]_H5.2_A5.1_F5.1_T5.2_[T11A]_[A12T]]
Kd: 779 nM

UCUCUUCUUAUAUUAUUACGUCUCUU (ssRNA) [Id_ii_S1_P5E.3_K5.2_C5.2_H5.2_A5.1_F5.1_T5.2_[T11C]_[A12G]]
Kd: 447 nM

UCUCUUUGUAUUAGUCUCUCUU (ssRNA) [Ib_S1_P5E.1_K5.1_C5.1_H5.1_A5.1_F5.1_[T8G]_[A10C]_T5.1]
Kd: 518 nM

UCUCUUCUUAUAUUAUUAACUCUCUU (ssRNA) [Id_ii_S1_P5E.3_K5.2_C5.2_H5.2_A5.1_F5.1_T5.2_[T11A]_[A12C]]
Kd: 476 nM

UCUCUUCGUAUAUUAUUAAAUCUCUU (ssRNA) [Id_ii_S1_P5E.3_K5.2_C5.2_[T-1G]_H5.2_A5.1_F5.1_T5.2_[T11A]]
Kd: 38.8 nM

UCUCUUCUUAUAUUAUUAGUUCUCUU (ssRNA) [Id_ii_S1_P5E.3_K5.2_C5.2_H5.2_A5.1_F5.1_T5.2_[T11G]_[A12T]]
Kd: 82.2 nM

UCUCUUCCUAUAUUAUUAUUUCUCUU (ssRNA) [Id_ii_S1_P5E.3_K5.2_C5.2_[T-1C]_H5.2_A5.1_F5.1_T5.2_[A12T]]
Kd: 517 nM

UCUCUUCAUAUAUUAUUAGCUCUCUU (ssRNA) [Id_ii_S1_P5E.3_K5.2_C5.2_[T-1A]_H5.2_A5.1_F5.1_T5.2_[T11G]_[A12C]]
Kd: 157 nM

UCUCUUCAUAUAUUAUUAGUUCUCUU (ssRNA) [Id_ii_S1_P5E.3_K5.2_C5.2_[T-1A]_H5.2_A5.1_F5.1_T5.2_[T11G]_[A12T]]
Kd: 141 nM

UCUCUUACUAUAUUAUUACAUCUCUU (ssRNA) [Id_ii_S1_P5E.3_K5.2_C5.2_[C-2A]_[T-1C]_H5.2_A5.1_F5.1_T5.2_[T11C]]
Kd: 424 nM

UCUCUUCUUAUAUUAUUAUCUCUCUU (ssRNA) [Id_ii_S1_P5E.3_K5.2_C5.2_H5.2_A5.1_F5.1_T5.2_[A12C]]
Kd: 491 nM

UCUCUUAUUAUAUUAUUACAUCUCUU (ssRNA) [Id_ii_S1_P5E.3_K5.2_C5.2_[C-2A]_H5.2_A5.1_F5.1_T5.2_[T11C]]
Kd: 128 nM

UCUCUUCUUAUAUUAUUAAAUCUCUU (ssRNA) [Id_ii_S1_P5E.3_K5.2_C5.2_H5.2_A5.1_F5.1_T5.2_[T11A]]
Kd: 730 nM

UCUCUUCUUAUAUUAUUAAUUCUCUU (ssRNA) [Id_ii_S1_P5E.3_K5.2_C5.2_H5.2_A5.1_F5.1_T5.2_[T11A]_[A12T]]
Kd: 460 nM

UCUCUUCAUAUAUUAUUAACUCUCUU (ssRNA) [Id_ii_S1_P5E.3_K5.2_C5.2_[T-1A]_H5.2_A5.1_F5.1_T5.2_[T11A]_[A12C]]
Kd: 218 nM

UCUCUUCAUAUAUUAUUACUUCUCUU (ssRNA) [Id_ii_S1_P5E.3_K5.2_C5.2_[T-1A]_H5.2_A5.1_F5.1_T5.2_[T11C]_[A12T]]
Kd: 321 nM

UCUCUUCAUAUAUUAUUAGGUCUCUU (ssRNA) [Id_ii_S1_P5E.3_K5.2_C5.2_[T-1A]_H5.2_A5.1_F5.1_T5.2_[T11G]_[A12G]]
Kd: 488 nM

UCUCUUGGACACUUAUUAUAUCUCUU (ssRNA) [Id_ii_S1_P5E.4_K5.3_C5.2_[C-2G]_[T-1G]_H5.3_A5.1_F5.1_T5.2]
Kd: > 2300 nM

UCUCUUAUUAUAUUAUUACGUCUCUU (ssRNA) [Id_ii_S1_P5E.3_K5.2_C5.2_[C-2A]_H5.2_A5.1_F5.1_T5.2_[T11C]_[A12G]]
Kd: 126 nM

UCUCUUUGUAUUACUGUCUCUU (ssRNA) [Ib_S1_P5E.1_K5.1_C5.1_H5.1_A5.1_F5.1_[T8C]_[A10G]_T5.1]
Kd: 71.2 nM

UCUCUUACUAUAUUAUUAACUCUCUU (ssRNA) [Id_ii_S1_P5E.3_K5.2_C5.2_[C-2A]_[T-1C]_H5.2_A5.1_F5.1_T5.2_[T11A]_[A12C]]
Kd: 706 nM

UCUCUUCCUAUAUUAUUACUUCUCUU (ssRNA) [Id_ii_S1_P5E.3_K5.2_C5.2_[T-1C]_H5.2_A5.1_F5.1_T5.2_[T11C]_[A12T]]
Kd: 456 nM

UCUCUUCUUAUAUUAUUACUUCUCUU (ssRNA) [Id_ii_S1_P5E.3_K5.2_C5.2_H5.2_A5.1_F5.1_T5.2_[T11C]_[A12T]]
Kd: 439 nM

UCUCUUUGUAUUAGUGUCUCUU (ssRNA) [Ib_S1_P5E.1_K5.1_C5.1_H5.1_A5.1_F5.1_[T8G]_[A10G]_T5.1]
Kd: 386 nM

UCUCUUUGUAUUCUAUCUCUU (ssRNA) [Ib_S1_P4E.1_K4.1_C4.1_H4.1_A4.1_[A6T]_[T7C]_F4.1_T4.1]
Kd: 2.85 nM

UCUCUUCCUAUAUUAUUAUCUCUCUU (ssRNA) [Id_ii_S1_P5E.3_K5.2_C5.2_[T-1C]_H5.2_A5.1_F5.1_T5.2_[A12C]]
Kd: 532 nM

UCUCUUGGACACUUAUUAACUCUCUU (ssRNA) [Id_ii_S1_P5E.4_K5.3_C5.2_[C-2G]_[T-1G]_H5.3_A5.1_F5.1_T5.2_[T11A]_[A12C]]
Kd: > 2300 nM
